Laboratory results from patent US20220273789A1.

Legend:
human IgG (human) = assay: BLI (Octet), His-tagged gEgI immobilised on Ni-NTA sensor, response to human IgG
[1] = target: Recombinant HSV2 gEgI protein (coating antigen of the competitive ELISA, produced in ExpiHEK293F) (HSV2 strain SD90e) (UniProt P89475); assay: ED50 of the competitive ELISA (competitor: human IgG); GM of N=4 mice, 21PIII (D63); bar below the positivity threshold (1/10), 5 being the first dilution/2
[2] = target: Recombinant HSV1 gEgI protein (coating antigen of the competitive ELISA, produced in ExpiCHO) (HSV1 strain KOS321; HSV1 strain 17); assay: ED50 of the competitive ELISA (competitor: human IgG); GM of N=5 mice, 21PII (D49); 5 is the value given to negative samples (first dilution/2), below the positivity threshold (1/10)
[3] = target: Recombinant HSV1 gEgI protein (coating antigen of the competitive ELISA, produced in ExpiCHO) (HSV1 strain KOS321; HSV1 strain 17); assay: ED50 of the competitive ELISA (competitor: human IgG); GM of N=4 mice, 14PIII (D42); 5 is the value given to negative samples (first dilution/2), below the positivity threshold (1/10)
[4] = target: Recombinant HSV2 gEgI protein (coating antigen of the competitive ELISA, produced in ExpiHEK293F) (HSV2 strain SD90e) (UniProt P89475); assay: as above

## PN97 (HSV2-gE_P318G_Δ319-320_gI) (from UniProt P89475 21-416; P06764 21-256) (receptor)
Human IgG (human)
  hIgG binding response: 0.146 nm

## NaCl150mM
[1]
  ED50 titer (geometric mean) (reciprocal dilution): 5
[2]
  ED50 titer (geometric mean) (reciprocal dilution): 5
[3]
  ED50 (geometric mean) (reciprocal dilution): 5
[4]
  ED50 titer (geometric mean) (reciprocal dilution): 5

## PN101 (HSV2-gE_P317G-P318K_Δ319-320_gI) (from UniProt P89475 21-416; P06764 21-256) (receptor)
Human IgG (human)
  hIgG binding response: 0.0868 nm

## PN94 (HSV2-gE_Δ319-320_gI) (from UniProt P89475 21-416; P06764 21-256) (receptor)
Human IgG (human)
  hIgG binding response: 0.115 nm

## PN96 (HSV2-gE_P318E_Δ319-320_gI) (from UniProt P89475 21-416; P06764 21-256) (receptor)
Human IgG (human)
  hIgG binding response: 0.0619 nm

## PN95 (HSV2-gE_P317G-P318G_Δ319-320_gI) (from UniProt P89475 21-416; P06764 21-256) (receptor)
Human IgG (human)
  hIgG binding response: 0.0748 nm

## PN100 (HSV2-gE_P317R-P318G_Δ319-320_gI) (from UniProt P89475 21-416; P06764 21-256) (receptor)
Human IgG (human)
  hIgG binding response: 0.0877 nm

## PN90 (HSV2-gE_gI) (from UniProt P89475 21-416; P06764 21-256) (receptor)
Human IgG (human)
  hIgG binding response: 0.623 nm

## PN98 (HSV2-gE_P318K_Δ319-320_gI) (from UniProt P89475 21-416; P06764 21-256) (receptor)
Human IgG (human)
  hIgG binding response: 0.135 nm

## PN99 (HSV2-gE_P317R-P318E_Δ319-320_gI) (from UniProt P89475 21-416; P06764 21-256) (receptor)
Human IgG (human)
  hIgG binding response: 0.0795 nm

## PN91 (HSV2-gE_P317R-P319D_gI) (from UniProt P89475 21-416; P06764 21-256) (receptor)
Human IgG (human)
  hIgG binding response: 0.0658 nm

## PN93 (HSV2-gE_P319D-R320D_gI) (from UniProt P89475 21-416; P06764 21-256) (receptor)
Human IgG (human)
  hIgG binding response: 0.0658 nm

## PN92 (HSV2-gE_P317R-R320D_gI) (from UniProt P89475 21-416; P06764 21-256) (receptor)
Human IgG (human)
  hIgG binding response: 0.056 nm
